# In PMC11051671 (Science Advances, 2024):
# B1: hZnT1-D47N/D255N double mutant (natural protein, human, UniProt Q9Y6M5 1-507, looked up)
# chain: MGCWGRNRGRLLCMLALTFMFMVLEVVVSRVTSSLAMLSDSFHMLSNVLALVVALVAERFARRTHATQKNTFGWIRAEVMGALVNAIFLTGLCFAILLEAIERFIEPHEMQQPLVVLGVGVAGLLVNVLGLCLFHHHSGFSQDSGHGHSHGGHGHGHGLPKGPRVKSTRPGSSDINVAPGEQGPDQEETNTLVANTSNSNGLKLDPADPENPRSGDTVEVQVNGNLVREPDHMELEEDRAGQLNMRGVFLHVLGNALGSVIVVVNALVFYFSWKGCSEGDFCVNPCFPDPCKAFVEIINSTHASVYEAGPCWVLYLDPTLCVVMVCILLYTTYPLLKESALILLQTVPKQIDIRNLIKELRNVEGVEEVHELHVWQLAGSRIIATAHIKCEDPTSYMEVAKTIKDVFHNHGIHATTIQPEFASVGSKSSVVPCELACRTQCALKQCCGTLPQAPSGKDAEKTPAVSISCLELSNNLEKKPRRTKAENIPAVVIEIKNMPNKQPESSL
# Target: the molecule itself
# Experiment: cryo-EM structure
protein,measurement,value
B1,stoichiometry N,2
